Measurements from patent US10500249B2, “Compositions and methods for preventing or treating diseases, conditions, or processes characterized by aberrant fibroblast proliferation and extracellular matrix deposition” (MOERAE MATRIX, INC., priority 2014, dated 2019).

Columns and labels:
Test in all cases: Kinase Profiling Assay
Assay type in all cases: biochemical
Settings in all cases: 100 μM
MST1 (h) = biological target: T1, MST1 (h) (Homo sapiens, UniProt Q13043)
T1 construct: purchased Millipore
T1 sequence (Q13043 1-487): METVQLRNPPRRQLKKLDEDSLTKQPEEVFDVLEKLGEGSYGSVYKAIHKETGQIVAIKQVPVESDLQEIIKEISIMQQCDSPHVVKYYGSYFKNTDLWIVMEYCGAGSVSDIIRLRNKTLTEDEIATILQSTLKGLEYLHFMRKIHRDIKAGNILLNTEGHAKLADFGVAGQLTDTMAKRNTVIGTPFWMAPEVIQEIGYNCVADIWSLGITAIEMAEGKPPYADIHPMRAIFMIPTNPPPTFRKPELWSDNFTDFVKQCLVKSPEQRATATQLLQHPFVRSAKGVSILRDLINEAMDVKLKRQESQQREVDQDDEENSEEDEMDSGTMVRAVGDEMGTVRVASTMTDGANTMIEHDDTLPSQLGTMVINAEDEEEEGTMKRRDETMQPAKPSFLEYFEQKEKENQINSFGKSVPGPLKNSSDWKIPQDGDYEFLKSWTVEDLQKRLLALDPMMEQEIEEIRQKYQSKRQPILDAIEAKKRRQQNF
How it was run: (§1)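 Each kinase activity was measured in duplicate. Phosphorylation of a positively charged substrate with radiolabeled phosphate from ATP was captured on a negatively charged filter, counted by scintillation and expressed relative to a 100% activity control. MK2 inhibitory peptides were screened for specificity across 266 human kinases.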

DMPK (h) = biological target: T2, DMPK (h) (Homo sapiens, UniProt Q09013)
T2 construct: purchased Millipore
T2 sequence (Q09013 1-629): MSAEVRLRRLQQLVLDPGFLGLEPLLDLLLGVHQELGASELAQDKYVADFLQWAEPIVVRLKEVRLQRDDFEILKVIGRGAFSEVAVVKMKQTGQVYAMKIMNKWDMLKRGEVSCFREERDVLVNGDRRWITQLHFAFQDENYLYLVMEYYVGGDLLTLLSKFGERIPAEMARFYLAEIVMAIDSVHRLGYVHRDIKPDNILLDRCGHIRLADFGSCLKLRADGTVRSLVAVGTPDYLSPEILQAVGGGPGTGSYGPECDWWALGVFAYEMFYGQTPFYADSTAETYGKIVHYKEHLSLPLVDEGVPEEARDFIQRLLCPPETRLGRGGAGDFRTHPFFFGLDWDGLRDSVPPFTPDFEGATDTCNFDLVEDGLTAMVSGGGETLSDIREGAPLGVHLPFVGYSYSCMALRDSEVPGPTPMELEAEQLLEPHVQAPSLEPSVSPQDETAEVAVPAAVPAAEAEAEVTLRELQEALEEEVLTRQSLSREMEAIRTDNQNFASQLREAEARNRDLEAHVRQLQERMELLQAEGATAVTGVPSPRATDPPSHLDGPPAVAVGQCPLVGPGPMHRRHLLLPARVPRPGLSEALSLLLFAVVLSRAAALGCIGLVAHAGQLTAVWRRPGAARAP
How it was run: as §1

MSK2 (h) = biological target: T3, MSK2 (h) (Homo sapiens, UniProt O75676)
T3 construct: purchased Millipore
T3 sequence (O75676 whole entry): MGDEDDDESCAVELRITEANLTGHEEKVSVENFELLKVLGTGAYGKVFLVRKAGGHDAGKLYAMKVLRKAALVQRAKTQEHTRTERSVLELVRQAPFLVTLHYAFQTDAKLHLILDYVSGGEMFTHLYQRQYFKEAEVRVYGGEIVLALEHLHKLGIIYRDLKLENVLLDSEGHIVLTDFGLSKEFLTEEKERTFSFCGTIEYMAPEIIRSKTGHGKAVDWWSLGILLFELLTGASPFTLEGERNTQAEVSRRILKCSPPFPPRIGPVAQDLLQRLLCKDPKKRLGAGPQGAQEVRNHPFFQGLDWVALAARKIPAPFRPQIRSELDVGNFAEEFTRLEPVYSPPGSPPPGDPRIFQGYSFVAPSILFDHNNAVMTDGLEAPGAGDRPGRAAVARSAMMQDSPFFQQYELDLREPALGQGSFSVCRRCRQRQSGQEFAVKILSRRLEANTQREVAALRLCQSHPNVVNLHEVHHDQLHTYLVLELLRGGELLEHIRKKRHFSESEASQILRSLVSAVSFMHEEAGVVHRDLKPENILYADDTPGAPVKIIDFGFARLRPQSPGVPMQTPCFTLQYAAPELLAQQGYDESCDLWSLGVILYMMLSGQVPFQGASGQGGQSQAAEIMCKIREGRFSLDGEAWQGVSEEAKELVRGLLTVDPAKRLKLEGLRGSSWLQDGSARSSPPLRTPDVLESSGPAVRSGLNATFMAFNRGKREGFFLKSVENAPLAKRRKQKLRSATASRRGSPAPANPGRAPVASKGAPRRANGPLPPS
How it was run: as §1

PDGFRα (V561D) (h) = biological target: T4, PDGFRα (V561D) (h) (Homo sapiens, UniProt P16234, V561D)
T4 construct: purchased Millipore
T4 sequence (P16234 24-1089 V561D): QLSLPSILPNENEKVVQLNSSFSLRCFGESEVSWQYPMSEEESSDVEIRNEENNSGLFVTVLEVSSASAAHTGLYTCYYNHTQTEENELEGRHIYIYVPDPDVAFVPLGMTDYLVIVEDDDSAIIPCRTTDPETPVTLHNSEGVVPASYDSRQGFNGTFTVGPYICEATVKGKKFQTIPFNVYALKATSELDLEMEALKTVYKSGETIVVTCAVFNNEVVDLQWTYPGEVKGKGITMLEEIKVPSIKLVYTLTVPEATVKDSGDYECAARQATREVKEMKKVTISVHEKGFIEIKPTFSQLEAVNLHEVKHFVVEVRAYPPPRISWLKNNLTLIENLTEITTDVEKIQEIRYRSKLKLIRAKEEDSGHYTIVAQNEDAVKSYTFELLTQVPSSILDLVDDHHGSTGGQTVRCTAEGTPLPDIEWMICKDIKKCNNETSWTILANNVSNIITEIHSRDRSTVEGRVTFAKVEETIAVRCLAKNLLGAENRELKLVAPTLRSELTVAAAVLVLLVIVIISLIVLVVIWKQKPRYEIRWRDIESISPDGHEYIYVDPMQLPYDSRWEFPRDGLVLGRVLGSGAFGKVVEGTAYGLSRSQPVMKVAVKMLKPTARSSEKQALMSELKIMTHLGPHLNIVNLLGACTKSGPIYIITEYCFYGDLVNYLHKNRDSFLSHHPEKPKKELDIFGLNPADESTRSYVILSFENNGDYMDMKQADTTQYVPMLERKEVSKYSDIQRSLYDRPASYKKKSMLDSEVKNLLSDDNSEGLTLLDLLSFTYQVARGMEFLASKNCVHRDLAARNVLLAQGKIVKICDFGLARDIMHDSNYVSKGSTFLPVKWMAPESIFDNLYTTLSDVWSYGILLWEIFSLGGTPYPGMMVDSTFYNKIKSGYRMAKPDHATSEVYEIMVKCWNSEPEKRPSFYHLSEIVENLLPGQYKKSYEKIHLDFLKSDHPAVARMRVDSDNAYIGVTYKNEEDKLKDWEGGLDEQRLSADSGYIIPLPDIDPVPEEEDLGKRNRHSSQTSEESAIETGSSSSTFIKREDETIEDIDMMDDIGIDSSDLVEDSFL
How it was run: as §1

NEK11 (h) = biological target: T5, NEK11 (h) (Homo sapiens, UniProt Q8NG66)
T5 construct: purchased Millipore
T5 sequence (Q8NG66 1-645): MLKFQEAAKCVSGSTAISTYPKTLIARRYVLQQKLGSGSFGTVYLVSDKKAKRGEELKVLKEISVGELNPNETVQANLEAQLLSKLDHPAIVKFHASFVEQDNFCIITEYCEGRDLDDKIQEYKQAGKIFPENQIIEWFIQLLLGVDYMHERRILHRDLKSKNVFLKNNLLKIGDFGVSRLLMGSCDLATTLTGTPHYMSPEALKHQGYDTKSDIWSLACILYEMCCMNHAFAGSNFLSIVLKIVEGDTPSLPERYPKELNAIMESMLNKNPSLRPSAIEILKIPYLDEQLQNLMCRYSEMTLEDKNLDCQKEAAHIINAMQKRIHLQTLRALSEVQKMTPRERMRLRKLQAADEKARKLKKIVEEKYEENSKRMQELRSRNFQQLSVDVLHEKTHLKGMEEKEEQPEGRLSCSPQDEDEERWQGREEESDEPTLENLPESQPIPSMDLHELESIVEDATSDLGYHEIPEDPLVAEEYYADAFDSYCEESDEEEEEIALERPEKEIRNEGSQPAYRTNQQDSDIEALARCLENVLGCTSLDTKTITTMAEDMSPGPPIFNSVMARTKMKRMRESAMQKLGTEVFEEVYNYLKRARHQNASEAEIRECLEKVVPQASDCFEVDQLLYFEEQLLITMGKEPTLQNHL
How it was run: as §1

Sequence | % activity (MST1 (h)) | % activity (DMPK (h)) | % activity (MSK2 (h)) | % activity (PDGFRα (V561D) (h)) | % activity (NEK11 (h))
KAFAKLAARLYRKALARQLGVAA [MMI-0400] | 6% | 54% | 52% | 100% | 33%
YARAAARQARAKALNRQLGVA (Mammalian) [MMI-0200] | 72% | 66% | 88% | – | 95%
HRRIKAWLKKIKALARQLGVAA (Mammalian) [MMI-0500] | 3% | 12% | 14% | 146% | 2%
FAKLAARLYRKALARQLGVAA [MMI-0300] | 14% | 59% | 56% | 82% | 53%
